Laboratory results from publication PMC10178846, “CERT1 mutations perturb human development by disrupting sphingolipid homeostasis” (The Journal of Clinical Investigation, 2023).
Values joined by “and” are separate entries in the source; they are usually repeats but may differ in a detail not shown here. Equal values may be shown once.

Experiments:
[1] = target: the molecule itself; test: native MS; native MS of purified recombinant CERT 151-309 WT; deconvoluted mass spectrum
[2] = target: the molecule itself; test: SEC-MALS; size-exclusion chromatography coupled to multiangle light scattering of recombinant CERT constructs; absolute molar mass

Protein | stoichiometry N [1] | stoichiometry N [2]
CERT central core domain (CCD), purified recombinant CERT 151-309 WT (domain or fragment, human, UniProt Q9Y5P4-1 151-309, looked up, human CERT (CERT1 isoform 1, CERTL), residues 151-309, central core domain; Theoretical MW is printed as 18.5 kDa; also called CERT CCD; source: recombinant, purified) FKKGHSLREKLAEMETFRDILCRQVDTLQKYFDACADAVSKDELQRDKVVEDDEDDFPTTRSDGDFLHSTNGNKEKLFPHVTPKGINGIDFKGEAITFKATTAGILATLSHCIELMVKREDSWQKRLDKETEKKRRTEEAYKNAMTELKKKSHFGGPDY | 2 and 4 | –
ceramide transporter CERT, recombinant full-length (CERT1 isoform 1, CERTL) (natural protein, human, UniProt Q9Y5P4-1 1-624, looked up, human ceramide transporter CERT (CERT1), isoform 1 (CERTL), NP_005704; full-length recombinant protein; also called CERT WT; source: recombinant) MSDNQSWNSSGSEEDPETESGPPVERCGVLSKWTNYIHGWQDRWVVLKNNALSYYKSEDETEYGCRGSICLSKAVITPHDFDECRFDISVNDSVWYLRAQDPDHRQQWIDAIEQHKTESGYGSESSLRRHGSMVSLVSGASGYSATSTSSFKKGHSLREKLAEMETFRDILCRQVDTLQKYFDACADAVSKDELQRDKVVEDDEDDFPTTRSDGDFLHSTNGNKEKLFPHVTPKGINGIDFKGEAITFKATTAGILATLSHCIELMVKREDSWQKRLDKETEKKRRTEEAYKNAMTELKKKSHFGGPDYEEGPNSLINEEEFFDAVEAALDRQDKIEEQSQSEKVRLHWPTSLPSGDAFSSVGTHRFVQKPYSRSSSMSSIDLVSASDDVHRFSSQVEEMVQNHMTYSLQDVGGDANWQLVVEEGEMKVYRREVEENGIVLDPLKATHAVKGVTGHEVCNYFWNVDVRNDWETTIENFHVVETLADNAIIIYQTHKRVWPASQRDVLYLSVIRKIPALTENDPETWIVCNFSVDHDSAPLNNRCVRAKINVAMICQTLVSPPEGNQEISRDNILCKITYVANVNPGGWAPASVLRAVAKREYPKFLKRFTSYVQEKTAGKPILF | – | 2
CERT construct encompassing the PH plus CCD domains (aa 1-341) (domain or fragment, human, UniProt Q9Y5P4-1 1-341, looked up, human CERT (CERT1 isoform 1, CERTL), residues 1-341, PH plus CCD domains) MSDNQSWNSSGSEEDPETESGPPVERCGVLSKWTNYIHGWQDRWVVLKNNALSYYKSEDETEYGCRGSICLSKAVITPHDFDECRFDISVNDSVWYLRAQDPDHRQQWIDAIEQHKTESGYGSESSLRRHGSMVSLVSGASGYSATSTSSFKKGHSLREKLAEMETFRDILCRQVDTLQKYFDACADAVSKDELQRDKVVEDDEDDFPTTRSDGDFLHSTNGNKEKLFPHVTPKGINGIDFKGEAITFKATTAGILATLSHCIELMVKREDSWQKRLDKETEKKRRTEEAYKNAMTELKKKSHFGGPDYEEGPNSLINEEEFFDAVEAALDRQDKIEEQSQ | – | 2
